Data published in patent EP1988168A1 (Max-Planck-Gesellschaft zur Förderung der Wissenschaften …, dated 2008).

B1: AnaCA-RbcXFLAG (other, Anabaena sp. CA)
chain: MDYKDDDDKAGMNLKQIAKDTAKTLQSYLTYQALRTVLAQLGETNPPLALWLHNFSAGKVQDGEKYIEELFLEKPDLALRIMTVREHIAEEIAEFLPEMVVTGIQQANMEKRRQHLERMTQVSLSHPSPESEQQQFSDPDWDNLAS
notes: also called FLAG-tagged AnaCA-RbcX
B2: Syn7002-RbcL (enzyme, Synechococcus sp. PCC7002, UniProt Q44176 1-470, looked up)
chain: MQTKSAGFNAGVQDYRLTYYTPDYTPKDTDLLACFRMTPQPGVPPEECAAAVAAESSTGTWTTVWTDGLTDLDRYKGRCYNVEPVPGEDNQYFCFVAYPLDLFEEGSVTNVLTSLVGNVFGFKALRALRLEDIRFPVALIKTYQGPPHGITVERDLLNKYGRPLLGCTIKPKLGLSAKNYGRAVYECLRGGLDFTKDDENINSQPFMRWRDRFLFVQEAIEKSQAETNEVKGHYLNVTAGTCEEMLKRAEFAKEIGTPIIMHDFLTGGFTANTTLAKWCRDNGVLLHIHRAMHAVIDRQKNHGIHFRVLAKCLRLSGGDHLHSGTVVGKLEGDRAATLGFVDLMREDYVEEDRSRGVFFTQDYASLPGTMPVASGGIHVWHMPALVEIFGDDSCLQFGGGTLGHPWGNAPGATANRVALEACVQARNEGRSLAREGNDVLREAGKWSPELAAALDLWKEIKFEFDTVDTL
notes: Stood in the assays as monomers, dimers, assembly intermediates or RbcL8 core complex, depending on the experiment; also called wildtype RbcL; RbcL8
B3: Syn7002-RbcXFLAG (other, Synechococcus sp. PCC7002)
chain: MDYKDDDDKAGMEFKKVAKETAITLQSYLTYQAVRLISQQLSETNPGQAIWLGEFSKRHPIQESDLYLEAMMLENKELVLRILTVRENLAEGVLEFLPEMVLSQIKQSNGNHRRSLLERLTQVDSSSTDQTEPNPGESDTSEDSE
notes: Coexpressed with RbcL in E. coli and pulled down with anti-FLAG M2 beads; also called N-terminally FLAG-tagged wildtype RbcX; FLAG-tagged Syn7002-RbcX
B4: Syn7002-RbcL peptide 2, KEIKFEFDTVD (peptide)
peptide: KEIKFEFDTVD
B5: AnaCA-RbcX (other, Anabaena sp. CA, UniProt Q44212 1-135, looked up)
chain: MNLKQIAKDTAKTLQSYLTYQALRTVLAQLGETNPPLALWLHNFSAGKVQDGEKYIEELFLEKPDLALRIMTVREHIAEEIAEFLPEMVVTGIQQANMEKRRQHLERMTQVSLSHPSPESEQQQFSDPDWDNLAS
notes: also called RbcX from Anabaena sp; CA
B6: Syn7002-RbcX (other, Synechococcus sp. PCC7002, UniProt Q44177 1-134, looked up)
chain: MEFKKVAKETAITLQSYLTYQAVRLISQQLSETNPGQAIWLGEFSKRHPIQESDLYLEAMMLENKELVLRILTVRENLAEGVLEFLPEMVLSQIKQSNGNHRRSLLERLTQVDSSSTDQTEPNPGESDTSEDSE
notes: Assembly chaperone; also called RbcX of Synechococcus sp; PCC7002; non-tagged Syn7002-RbcX

Experiments:
[1] = target: T1, Syn7002-RbcL(F462A, F464A) (Synechococcus sp. PCC7002, UniProt Q44176 1-470); assay: pulse-chase in vitro translation, Bis-Tris Native-PAGE, autoradiography
T1 construct: also called RbcL(F462A/F464A) double mutant

GroEL = target: T2, GroEL (E. coli, UniProt P0A6F5 2-548); assay: in vitro translation, Native-PAGE, autoradiography
T2 construct: also called E. coli GroEL; chaperonin
T2 sequence (P0A6F5 2-548 limits assumed): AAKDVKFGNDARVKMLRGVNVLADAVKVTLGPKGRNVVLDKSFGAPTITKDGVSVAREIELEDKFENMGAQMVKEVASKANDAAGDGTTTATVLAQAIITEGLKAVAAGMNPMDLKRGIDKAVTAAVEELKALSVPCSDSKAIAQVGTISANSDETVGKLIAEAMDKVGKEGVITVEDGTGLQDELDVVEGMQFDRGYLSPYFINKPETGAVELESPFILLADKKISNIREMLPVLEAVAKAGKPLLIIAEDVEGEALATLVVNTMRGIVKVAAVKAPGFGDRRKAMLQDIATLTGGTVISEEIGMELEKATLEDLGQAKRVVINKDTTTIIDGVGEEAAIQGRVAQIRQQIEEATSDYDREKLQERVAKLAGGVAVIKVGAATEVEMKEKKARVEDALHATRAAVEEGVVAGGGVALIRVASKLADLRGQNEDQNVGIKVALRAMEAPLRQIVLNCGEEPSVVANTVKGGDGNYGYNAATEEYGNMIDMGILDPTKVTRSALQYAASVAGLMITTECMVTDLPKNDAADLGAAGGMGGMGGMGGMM

Syn7002-RbcL [2] = target: B2; assay: co-immunoprecipitation with anti-FLAG antibody from E. coli extract
AnaCA-RbcX = target: B5; assay: isothermal titration calorimetry, peptide titrated into RbcX dimer at 22°C
Syn7002-RbcX = target: B6; assay: as above
[3] = target: B4; assay: comparison of the ITC affinities for the C-terminal RbcL peptide
Syn7002-RbcL(1-459) = Syn7002-RbcL(1-459) (Synechococcus sp. PCC7002, UniProt Q44176 1-459); assay: coexpression in E. coli, Native-PAGE and immunoblot
[4] = target: T1, Syn7002-RbcL(F462A, F464A); assay: as above
Syn7002-RbcL [5] = target: B2; assay: displacement of RbcL from anti-FLAG beads carrying the Syn7002-RbcL/Syn7002-RbcXFLAG complex, 15 min at room temperature, immunoblot; competitor Syn7002-RbcXFLAG

B1
binding result [1]: no binding (tested: 40 µM RbcX)

B2
binding result (GroEL): binds

B3
binding result (Syn7002-RbcL [2]): binds

B4
Kd (AnaCA-RbcX): ~5 µM | Kd (Syn7002-RbcX): ~160 µM

B5
fold higher affinity (against Syn7002-RbcX) [3]: 30 fold | binding result (Syn7002-RbcL(1-459)): no binding | binding result [4]: no binding

B6
IC50 (Syn7002-RbcL [5]): ~1 µM

EIKFEFD (also called peptide EIKFEFD) [Syn7002-RbcL peptide 1, EIKFEFD]
Kd (AnaCA-RbcX): ~60 µM | Kd (Syn7002-RbcX): ~230 µM
